For assay [1], the target named is BamA(S274C/C690S/C700S) (disulfide-crosslinked SurA–BAM complex 1) (E. coli, UniProt P0A940 21-810, S274C | C690S | C700S). The experiment in a line: cryo-EM structure.
Assay [2] addresses BamA(C690S/C700S) (disulfide-crosslinked SurA–BAM complex 2) (E. coli, UniProt P0A940 21-810, C690S | C700S). The experiment in a line: cryo-EM structure.

Changes are numbered by the printed parent chain. In names and notes the source's numbering stands.

B1: SurA(N336C)-His10 (disulfide-crosslinked SurA–BAM complex 1) (natural protein)
chain: APQVVDKVAAVVNNGVVLESDVDGLMQSVKLNAAQARQQLPDDATLRHQIMERLIMDQIILQMGQKMGVKISDEQLDQAIANIAKQNNMTLDQMRSRLAYDGLNYNTYRNQIRKEMIISEVRNNEVRRRITILPQEVESLAQQVGNQNDASTELNLSHILIPLPENPTSDQVNEAESQARAIVDQARNGADFGKLAIAHSADQQALNGGQMGWGRIQELPGIFAQALSTAKKGDIVGPIRSGVGFHILKVNDLRGESKNISVTEVHARHILLKPSPIMTDEQARVKLEQIAADIKSGKTTFAAAAKEFSQDPGSACQGGDLGWATPDIFDPAFRDALTRLNKGQMSAPVHSSFGWHLIELLDTRNVDKTDAAQKDRAYRMLMNRKFSEEAASWMQEQRASAYVKILSN
For the molecule B1, in assay [1], the binding result is “binds”.

B2: SurA(I297C)-His10 (disulfide-crosslinked SurA–BAM complex 2) (natural protein)
chain: B1 chain with I277C, C316N
For the molecule B2, in assay [2], the binding result is recorded as “binds”.

(Values after doi:10.1101/2025.11.10.687524 (bioRxiv, 2025).)
